The values below come from patent publication US20260137799A1, “ANTI-MUC1* ANTIBODY DRUG COMPLEXES AND USES THEREOF” (Minerva Biotechnologies Corporation, priority 2023, published 2026).

The subject of one test is HPAFII-MUC1*. In words: PrestoBlue live/dead cell assay, HPAFII-MUC1*. In kind it is cell-based, human. Particulars: Presto Blue; 72-120 hour incubation. The protocol:
(§1) Another method of measuring the killing activity of ADCs against target cancer cells is to use the PrestoBlue live/dead cell assay (ThermoFisher). Target cancer cells were seeded in a black-walled, clear-bottom 96-well tissue culture plate at a density of 5000 cells/well (100 μL of a 50,000 cells/mL stock) and incubated overnight in a 37° C./5% CO2 incubator. ADCs were prepared as a 2× solution in corresponding cancer cell growth media and 100 μL of each concentration was added to target cancer cells. As a positive control (100% killing) cancer cells were treated with 1 μM Taxol instead of ADC. After 72 hour-120 hour incubation in a 37° C./5% CO2 incubator, cell viability was measure by fluorescence using the PrestoBlue HS assay (ThermoFisher). Briefly, after the incubation period, 20 μL of PrestoBlue HS solution was added. Fluorescence (Ex 560 nm/Em 590 nm) was recorded after 30-90 min. incubation using a Tecan plate reader. Percentage viability was determined by PrestoBlue HS staining and normalized to 1 μM taxol treated cells.
(§2) The normalized fluorescence values were imported into the graph program, Sigma Plot, data plotted as ADC concentration versus normalized fluorescence signal and curve fitted using a four-parameter Hill equation: f=y0+a*x^b/(c^b+x^b) to calculate IC50 values. IC50 values for the ADCs were generally consistent between the xCELLigence and Presto Blue assays.

Test [1] has as its system T47D-MUC1* xenograft tumors. The test can be described thus: T47D-MUC1* breast cancer xenograft. The following applies: intraperitoneal; MMAE ADCs 5-10 mg/kg Days 7, 14, 20; deruxtecan/exatecan ADCs 20 mg/kg weekly x7. In kind it is in vivo, NOD/SCID mice. As for the experimental part: (§3) For breast cancer xenografts, female NOD/SCID mice (weight 18-22 g, 6-8 weeks old, Charles River Laboratories) previously implanted with a 90-day release estrogen pellet (Innovative Research Laboratories) were subcutaneously injected under isoflurane anesthesia (ISOTHESIA, 250 ml (HENRY SCHEIN, NDC: 11695-6776-2) with one million luciferase-positive T47D breast cancer cells expressing low levels of MUC1*(ATCC) or one million luciferase-positive T47D-MUC1* cells overproducing MUC1* using a BD 26G Insulin Syringes with Detachable Needle (Fisher cat: 329652) or BD 28G Lo-Dose U-100 Insulin Syringes (Fisher cat: 329461).
(§4) Tumor volume was measured from bioluminescence images acquired with a Xenogen IVIS-Spectrum system (Perkin Elmer). Mice were injected […] into the scruff of the neck with 150 ul, 30 mg/mL, D-Luciferin (XenoLight™ D-Luciferin Potassium Salt; PerkinElmer P/N 122799), placed under isoflurane anesthesia, and photographed within 10 minutes of the Leciferin injection. Data was expressed graphically as Radiance (photons/sec) as a function of days post-tumor implantation.
(§5) Tumor mass was determined from tumors excised from mice receiving T47D cells on Day 95 and mice receiving T47D-MUC1* cells on Day 96. […]

In another test the test system is NCI-H1975. In words: xCELLigence impedance cytotoxicity, NCI-H1975. The following applies: xCELLigence; 40-120 hours incubation; read-out: IC50, NCI-H1975. In kind it is cell-based, human. In outline: (§6)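 Adherent target cells plated at 5000/well on electrode plates were grown 24 h, then exposed to serially diluted ADCs in growth medium at 37° C/5% CO2. Killing was followed as real-time impedance loss over 40-120 h, normalized to 1% triton or 1 μM Taxol as 100% kill.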

In test [2] the test system is T47D. In words: xCELLigence impedance cytotoxicity, T47D. In kind it is cell-based, human. Particulars: xCELLigence; 40-120 hours incubation; read-out: IC50, T47D. In outline:
as §6

The next test concerns T47D xenograft tumors. The test can be described thus: T47D breast cancer xenograft. Particulars: intraperitoneal; MMAE ADCs 5-10 mg/kg Days 7, 14, 20; deruxtecan/exatecan ADCs 20 mg/kg weekly x7. In kind it is in vivo, NOD/SCID mice. As for the experimental part: as §3, §4, §5
Test [3] concerns DU-145. In words: PrestoBlue live/dead cell assay, DU-145. In kind it is cell-based, human. The following applies: Presto Blue; 72-120 hour incubation. As for the experimental part: as §1, §2
Test [4] concerns T47D-MUC1*. In words: PrestoBlue live/dead cell assay, T47D-MUC1*. Particulars: Presto Blue; 72-120 hour incubation. In kind it is cell-based, human. The protocol: as §1, §2
Test [5] relates to T47D-MUC1* 15%. In words: PrestoBlue live/dead cell assay, T47D-MUC1* 15%. In kind it is cell-based, human. The following applies: Presto Blue; 72-120 hour incubation. The protocol:
as §1, §2

The subject of a further test is H1975. The test can be described thus: PrestoBlue live/dead cell assay, H1975. In kind it is cell-based, human. Particulars: Presto Blue; 72-120 hour incubation. The protocol:
as §1, §2

The test system of a further test is HPAF-II. The test can be described thus: xCELLigence impedance cytotoxicity, HPAF-II. In kind it is cell-based, human. Particulars: xCELLigence; 40-120 hours incubation; read-out: IC50, HPAF-II. The protocol:
(§7) An xCELLigence RTCA MP Instrument (Agilent) was used to assess real-time killing of target cancer cells). In the xCELLigence system, target cancer cells, which are adherent, are plated onto electrode array 96-well plates. Adherent cells insulate the electrode and increase the impedance. The number of adherent cancer cells is directly proportional to impedance. […] Therefore, increasing impedance reflects the growth of the cancer cells and decreasing impedance reflects the killing of the cancer cells.
(§8) Target Cancer cells (Table 9) were seeded onto a multi-electrode well plate at a density of 5000 cells/well (100 μL of a 50,000 cells/mL stock) and incubated for 24 hr in a 37° C./5% CO2 incubator. ADCs were prepared as a 2× solution in corresponding growth media and 100 μL of each concentration was added to target cells. As a positive control (100% cell killing) cells were treated with either 1% triton or 1 μM Taxol instead of ADC. After 40-120 hours incubation in a 37° C./5% CO2 incubator cell killing was assessed. In this assay, impedance is measured in real-time. When the adherent cancer cells are killed and come off the electrode surface, impedance (insulation) decreases.

In test [6] the test system is T47D-MUC1* 15%. In words: xCELLigence impedance cytotoxicity, T47D-MUC1* 15%. In kind it is cell-based, human. The following applies: 40-120 hours incubation. The protocol: as §7, §8
Another test relates to HPAF-II MUC1*. In words: xCELLigence impedance cytotoxicity, HPAF-II MUC1*. In kind it is cell-based, human. The following applies: xCELLigence; 40-120 hours incubation; read-out: IC50, HPAF-II MUC1*. The protocol:
as §7, §8

For the next test, the system named is HPAFII. The test can be described thus: PrestoBlue live/dead cell assay, HPAFII. In kind it is cell-based, human. The following applies: Presto Blue; 72-120 hour incubation. As for the experimental part: as §1, §2
Test [7] relates to T47D-MUC1*. The test can be described thus: xCELLigence impedance cytotoxicity, T47D-MUC1*. In kind it is cell-based, human. The following applies: xCELLigence; 40-120 hours incubation; read-out: IC50, T47D-MUC1*. The protocol:
as §7, §8

The test system of test [8] is T47D. The test can be described thus: PrestoBlue live/dead cell assay, T47D. Particulars: Presto Blue; 72-120 hour incubation. In kind it is cell-based, human. The protocol: as §1, §2
The test system of test [9] is DU-145. In words: xCELLigence impedance cytotoxicity, DU-145. In kind it is cell-based, human. Particulars: 40-120 hours incubation. The protocol:
as §7, §8

B1: C2 MC-PEG8-VA-PAB exatecan (conjugate, listed as Mus sp.)
heavy: EVQLEESGGGLVKPGGSLKLSCAASGFTFSGYAMSWVRQTPEKRLEWVATISSGGTYIYYPDSVKGRFTISRDNAKNTLYLQMSSLRSEDTAMYYCARLGGDNYYEYFDVWGAGTTVTVSSAKTTPPSVYAKTTPPSVYPLAPGSAAQTNSMVTLGCLVKGYFPEPVTVTWNSGSLSSGVHTFPAVLQSDLYTLSSSVTVPSSTWPSETVTCNVAHPASSTKVDKKIVPRDCGCKPCICTVPEVSSVFIFPPKPKDVLTITLTPKVTCVVVDISKDDPEVQFSWFVDDVEVHTAQTQPREEQFNSTFRSVSELPIMHQDWLNGKEFKCRVNSAAFPAPIEKTISKTKGRPKAPQVYTIPPPKEQMAKDKVSLTCMITDFFPEDITVEWQWNGQPAENYKNTQPIMDTDGSYFVYSKLNVQKSNWEAGNTFTCSVLHEGLHNHHTEKSLSHSPGK
light: DIVITQSTASLGVSLGQRATISCRASKSVSTSGYSYMHWYQQRPGQPPKLLIYLASNLESGVPARFSGSGSGTDFTLNIHPVEEEDAATYYCQHSRELPFTFGGGTKLEIKRADAAPTVSADAAPTVSIFPPSSEQLTSGGASVVCFLNNFYPKDINVKWKIDGSERQNGVLNSWTDQDSKDSTYSMSSTLTLTKDEYERHNSYTCEATHKTSTSPIVKSFNRNEC
modifications: MC-PEG8-VA-PAB-exatecan
notes: ADC: antibody C2 conjugated via MC-PEG8-VA-PAB linker to exatecan
As for B1, the 50% inhibitory concentration (IC50) in the test with HPAFII-MUC1* came out at 62 nM; in the test with NCI-H1975, 207 nM; in the test on T47D [2], 112 nM; in the test on DU-145 [3] it was 160 nM; with T47D-MUC1* [4] it was 8 nM; in the test on T47D-MUC1* 15% [5] it was 25 nM. Besides, the IC50 in the test on H1975 worked out at 19 nM; in the test with HPAF-II, 86 nM; in the test with T47D-MUC1* 15% [6] it was 20 nM; in the test with HPAF-II MUC1*, 72 nM; in the test on HPAFII, 180 nM; with T47D-MUC1* [7], 6.2 nM. Moreover, the IC50 in the test on T47D [8] was 153 nM; with DU-145 [9], 163 nM. The “growth of T47D-MUC1* xenograft tumors” value in test [1] is “inhibit the growth”. Moreover, the “growth of T47D xenograft tumors” value in the test on T47D xenograft tumors is “inhibit the growth”.
